# Test results from patent US20240182536A1 (MURAL ONCOLOGY, published 2024).
# Where a chain is given by its changes, count along the chain named. Names and notes keep the numbering of the source.
# T1: human IL-18 binding protein (human, UniProt O95998 31-194)
# T1 sequence (looked up): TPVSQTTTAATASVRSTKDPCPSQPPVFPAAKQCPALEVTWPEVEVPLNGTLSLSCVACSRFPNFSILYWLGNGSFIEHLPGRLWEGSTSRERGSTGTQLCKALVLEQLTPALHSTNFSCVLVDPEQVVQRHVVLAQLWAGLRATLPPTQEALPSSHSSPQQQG
# T2: IL-18 receptors on HEK-Blue IL-18 reporter cells (UniProt Q13478 19-541; O95256 20-599, limits assumed)
# T2 sequence (looked up) 1: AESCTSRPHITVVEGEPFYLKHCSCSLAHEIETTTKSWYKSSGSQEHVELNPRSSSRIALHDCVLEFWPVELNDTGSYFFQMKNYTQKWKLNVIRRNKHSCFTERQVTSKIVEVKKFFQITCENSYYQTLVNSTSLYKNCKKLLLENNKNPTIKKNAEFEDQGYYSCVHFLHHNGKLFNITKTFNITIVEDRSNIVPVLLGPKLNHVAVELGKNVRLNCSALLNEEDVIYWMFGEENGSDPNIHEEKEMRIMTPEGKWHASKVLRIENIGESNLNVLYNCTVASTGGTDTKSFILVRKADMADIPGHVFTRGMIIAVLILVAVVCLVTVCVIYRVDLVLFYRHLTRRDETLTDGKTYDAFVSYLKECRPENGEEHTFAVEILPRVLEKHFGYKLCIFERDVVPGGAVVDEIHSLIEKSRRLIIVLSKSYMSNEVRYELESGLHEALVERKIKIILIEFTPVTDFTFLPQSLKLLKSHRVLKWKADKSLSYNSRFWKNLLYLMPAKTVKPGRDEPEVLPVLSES
# T2 sequence (looked up) 2: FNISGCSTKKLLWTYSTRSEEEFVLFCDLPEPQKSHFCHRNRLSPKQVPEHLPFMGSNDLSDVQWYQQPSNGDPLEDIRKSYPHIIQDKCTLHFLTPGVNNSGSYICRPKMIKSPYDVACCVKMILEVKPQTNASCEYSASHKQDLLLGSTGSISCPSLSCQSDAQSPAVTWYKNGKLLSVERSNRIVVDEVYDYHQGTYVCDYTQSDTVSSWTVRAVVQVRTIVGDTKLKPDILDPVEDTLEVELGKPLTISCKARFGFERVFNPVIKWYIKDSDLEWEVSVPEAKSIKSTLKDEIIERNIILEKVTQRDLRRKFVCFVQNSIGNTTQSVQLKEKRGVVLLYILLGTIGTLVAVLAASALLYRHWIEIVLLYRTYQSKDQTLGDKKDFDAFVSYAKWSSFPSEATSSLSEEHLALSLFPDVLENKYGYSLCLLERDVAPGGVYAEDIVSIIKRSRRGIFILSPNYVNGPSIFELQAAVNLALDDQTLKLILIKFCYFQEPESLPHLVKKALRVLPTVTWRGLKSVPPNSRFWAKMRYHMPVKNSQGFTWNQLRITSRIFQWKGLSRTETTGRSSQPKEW
# B1: yeast display IL-18 variant K53S, S55Y (ligand)
# chain: YFGKLESKLSVIRNLNDQVLFIDQGNRPLFEDMTDSDMRDNAPRTIFIISMYSDYQPRGMAVTISVKSEKISTLSSENKIISFKEMNPPDNIKDTKSDIIFFQRSVPGHDNKMQFESSSYEGYFLASEKERDLFKLILKKEDELGDRSIMFTVQNED
# B2: yeast display IL-18 variant K53D, S55N (ligand)
# chain: B1 chain with S53D, Y55N
# B3: yeast display IL-18 variant K53G, S55V (ligand)
# chain: B1 chain with S53G, Y55V
# B4: yeast display IL-18 variant K53N, S55M, R104S, P107A (ligand)
# chain: B1 chain with S53N, Y55M, R104S, P107A
# B5: yeast display IL-18 variant K53H, S55V (ligand)
# chain: B1 chain with S53H, Y55V
# B6: yeast display IL-18 variant K53Q, D54N, S55M, Q56H (ligand)
# chain: B1 chain with S53Q, D54N, Y55M, Q56H
# B7: yeast display IL-18 variant T34I, S36T, D40A, N41M, K53T, S55Y (ligand)
# chain: B1 chain with T34I, S36T, D40A, N41M, S53T
# B8: yeast display IL-18 variant K53T, S55F (ligand)
# chain: B1 chain with S53T, Y55F
# B9: yeast display IL-18 variant K53S, S55F, R104K, H109Y (ligand)
# chain: B1 chain with Y55F, R104K, H109Y
# B10: yeast display IL-18 variant L5W, S7Y, K53H, S55M (ligand)
# chain: B1 chain with L5W, S7Y, S53H, Y55M
# B11: yeast display IL-18 variant L5W, I22M, K53N, S55Y, Q56H (ligand)
# chain: B1 chain with L5W, I22M, S53N, Q56H
# B12: yeast display IL-18 variant E6D, S36F, K53T, S55M, R58K (ligand)
# chain: B1 chain with E6D, S36F, S53T, Y55M, R58K
# B13: yeast display IL-18 variant K53G, S55I (ligand)
# chain: B1 chain with S53G, Y55I
# B14: yeast display IL-18 variant K53N, S55I (ligand)
# chain: B1 chain with S53N, Y55I
# B15: yeast display IL-18 variant K53T, S55M, R58K (ligand)
# chain: B1 chain with S53T, Y55M, R58K
# B16: yeast display IL-18 variant K53W, S55A (ligand)
# chain: B1 chain with S53W, Y55A
# B17: yeast display IL-18 variant S36E, D37E, D40K, N41T, K53T, S55Q, R104H (ligand)
# chain: B1 chain with S36E, D37E, D40K, N41T, S53T, Y55Q, R104H
# Molecular target: T1, human IL-18 binding protein
# Assay: cell-based or functional assay
Binder,"HEK-Blue activity, +100 nM BP, DF-10000","HEK-Blue activity, +100 nM BP, DF-100,000","HEK-Blue activity, +100 nM BP, DF-1,000,000","Ratio (-BP/+BP), DF-10000","Ratio (-BP/+BP), DF-100,000","Ratio (-BP/+BP), DF-1,000,000"
B1,1.52,0.55,0.21,0.93,0.97,0.9
B2,0.47,0.12,0.09,0.95,1.05,1
B3,0.57,0.15,0.1,0.98,1.01,1.03
B4,0.15,0.12,0.11,5.37,1.93,1.08
B5,1.05,0.34,0.14,1.53,2.79,2.31
B6,0.21,0.11,0.09,2.21,1.16,1.06
B7,0.37,0.12,0.12,1.03,1.45,1.18
B8,0.6,0.18,0.25,1.12,1.09,0.64
B9,0.14,0.09,0.09,3.08,1.18,0.95
B10,0.12,0.12,0.13,4.04,1.41,1.24
B11,0.72,0.23,0.21,1.05,0.91,0.61
B12,0.5,0.14,0.09,0.96,1.02,0.96
B13,0.76,0.19,0.13,0.77,0.73,0.7
B14,0.29,0.11,0.09,1.1,1,0.99
B15,0.72,0.21,0.17,1.08,0.92,0.72
B16,0.31,0.16,0.13,0.89,0.84,0.84
B17,0.81,0.21,0.14,1,1.01,1.22

# Molecular target: T2, IL-18 receptors on HEK-Blue IL-18 …
# Assay: cell-based or functional assay
Binder,"HEK-Blue activity, No BP, DF-10000","HEK-Blue activity, No BP, DF-100,000","HEK-Blue activity, No BP, DF-1,000,000"
B1,1.41,0.54,0.19
B2,0.45,0.13,0.09
B3,0.56,0.15,0.1
B4,0.8,0.24,0.12
B5,1.6,0.94,0.33
B6,0.46,0.13,0.09
B7,0.38,0.18,0.14
B8,0.67,0.2,0.16
B9,0.43,0.11,0.09
B10,0.5,0.16,0.16
B11,0.75,0.21,0.13
B12,0.48,0.14,0.09
B13,0.59,0.14,0.09
B14,0.32,0.11,0.09
B15,0.78,0.2,0.12
B16,0.28,0.13,0.11
B17,0.81,0.22,0.17
